Reference: publication PMC10635007

Legend:
[1] = biological target: E-cadherin control (expressed without FUT2; without terminal fucosylation) (UniProt P12830); test: atomic force microscopy
[2] = biological target: FUT2-fucosylated E-cadherin (co-expressed with FUT2; with terminal fucosylation) (UniProt P12830); test: atomic force microscopy

E-cadherin control (expressed without FUT2; without terminal fucosylation) (from UniProt P12830 23-882) (natural protein)
mean maximum adhesion force [1]: 63.5 nN

FUT2-fucosylated E-cadherin (co-expressed with FUT2; with terminal fucosylation) (from UniProt P12830 23-882) (natural protein)
mean maximum adhesion force [2]: 79.8 nN
